# Assay results reported in publication PMC4361550, “Biophysical Analysis of Anopheles gambiae Leucine-Rich Repeat Proteins APL1A^1, APL1B and APL1C and Their Interaction with LRIM1” (PLoS ONE, 2015).
# Target: the molecule itself
# Test: SEC; Superdex 75 (10/300), proteins at 1 mg/ml, 100 mM NaCl, 20 mM HEPES pH 7.5; apparent molecular weight against mass standards
protein,measurement,value
"APL1B LRR domain (APL1B-LRR) (domain or fragment, Anopheles gambiae, UniProt A7URS4 21-370, looked up, N-linked glycosylation (predicted at Asn166, Asn211, Asn317; N-acetylglucosamine resolved at Asn166), APL1B of Anopheles gambiae, allele from strain G3, LRR domain; cloned as residues 1-370 with its signal peptide; the crystallized protein comprises APL1B 21-370 and a C-terminal 6xHis tag; Model in PDB 4XGO holds residues 25-364 (chain A) and 27-364 (chain B); source: T. ni cells (baculovirus, Bac-to-Bac), purified (Talon, MonoS, SEC); not shown: 6xHis, C-terminal, kept) GQLSYKSMHLTPFTLSALLASFHKVEVLNLNGLQIEEIDTNAFAYAHTIQKLYMRFNVIRYLPPHVFQNVPLLTVLMLDRNDLSSLPPGIFHNTPKLTMLSMSNNNLERIEDDTFQATTSLQNLQLSSNRLTHVDLALIPSLFHVNVSYNLLSTLAIPIAVEELDASHNSINVVRGPVNVELTILKLQHNNLTDTAWLLNYPGLTDVDLSYNQLEIITIHHFVTMQRLERLHVSNNRLVAFDLYGRPIPTLKVLDLSHNHLMWVEHNQAQFDKLQYLYLDHNSIVTLKLSTSHTIKNLTLSHNDWDCNSLRALFRNVARPVVDDADQYCKIDYHLEHGLCCKESDKPYLD",stoichiometry N,2
